Results from article PMC8125178, “Fluorescence Correlation Spectroscopy Analysis of Effect of Molecular Crowding on Self-Assembly of β-Annulus Peptide into Artificial Viral Capsid” (International Journal of Molecular Sciences, 2021).

Columns and labels:
BODIPY-β-annulus peptide [1] = target: T1, BODIPY-β-annulus peptide (tomato bushy stunt virus, BODIPY-maleimide added by Michael addition to the thiol of the N-terminal Cys); assay: fluorescence correlation spectroscopy (FCS); 0.1 μM BODIPY-β-annulus peptide with 0~200 μM β-annulus peptide in 10 mM Tris-HCl buffer (pH 7.0), sonicated 10 min, incubated 30 min, 25 °C; ratio of the slow component fitted to the Hill equation; apparent Kd; conditions: both partners purified
T1 construct: also called BODIPY-labelled β-annulus peptide; fluorescent-labelled β-annulus peptide; source: synthetic peptide (solid-phase Fmoc chemistry; labelled with BODIPY-maleimide; purified by reversed-phase HPLC)
T1 peptide: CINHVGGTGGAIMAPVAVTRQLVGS

BODIPY-β-annulus peptide [2] = target: T1, BODIPY-β-annulus peptide; assay: as above; conditions: both partners purified
[3] = target: the molecule itself; assay: fluorescence correlation spectroscopy (FCS); 0.1 μM BODIPY-β-annulus peptide with 0~200 μM β-annulus peptide in 10 mM Tris-HCl buffer (pH 7.0) with 5 wt% PEG2000, 25 °C; ratio of the slow component fitted to the Hill equation
BODIPY-β-annulus peptide [4] = target: T1, BODIPY-β-annulus peptide; assay: as above; conditions: both partners purified
BODIPY-β-annulus peptide [5] = target: T1, BODIPY-β-annulus peptide; assay: fluorescence correlation spectroscopy (FCS); 0.1 μM BODIPY-β-annulus peptide with 0~200 μM β-annulus peptide in 10 mM Tris-HCl buffer (pH 7.0) with 20 wt% PEG2000, 25 °C; ratio of the slow component fitted to the Hill equation; conditions: both partners purified
BODIPY-β-annulus peptide [6] = target: T1, BODIPY-β-annulus peptide; assay: fluorescence correlation spectroscopy (FCS); 0.1 μM BODIPY-β-annulus peptide with 0~200 μM β-annulus peptide in 10 mM Tris-HCl buffer (pH 7.0) with 15 wt% PEG2000, 25 °C; ratio of the slow component fitted to the Hill equation; conditions: both partners purified
BODIPY-β-annulus peptide [7] = target: T1, BODIPY-β-annulus peptide; assay: fluorescence correlation spectroscopy (FCS); 0.1 μM BODIPY-β-annulus peptide with 0~200 μM β-annulus peptide in 10 mM Tris-HCl buffer (pH 7.0) with 10 wt% PEG2000, 25 °C; ratio of the slow component fitted to the Hill equation; conditions: both partners purified
BODIPY-β-annulus peptide [8] = target: T1, BODIPY-β-annulus peptide; assay: fluorescence correlation spectroscopy (FCS); 0.1 μM BODIPY-β-annulus peptide with 0~200 μM β-annulus peptide in 10 mM Tris-HCl buffer (pH 7.0) with 5 wt% PEG2000, 25 °C; ratio of the slow component fitted to the Hill equation; conditions: both partners purified

B1: 24-mer β-annulus peptide from tomato bushy stunt virus (peptide)
peptide: INHVGGTGGAIMAPVAVTRQLVGS
notes: also called unmodified β-annulus peptide; source: synthetic peptide (solid-phase Fmoc chemistry, purified by reversed-phase HPLC)
B1 was tested, and the Kd (BODIPY-β-annulus peptide [1]) was 45.2 ± 10.6 µM, the “ratio of the slow component at 200 μM β-annulus” value (BODIPY-β-annulus peptide [2]) was 62% and the binding result [3] was “binds”. The “ratio of the slow component at 200 μM β-annulus” value (BODIPY-β-annulus peptide [4]) was 76%, the Kd (BODIPY-β-annulus peptide [5]) was 5.66 ± 2.15 µM and the Kd (BODIPY-β-annulus peptide [6]) was 4.24 ± 3.22 µM. It also gave a Kd (BODIPY-β-annulus peptide [7]) of 6.69 ± 3.25 µM and a Kd (BODIPY-β-annulus peptide [8]) of 14.4 ± 7.81 µM.
